Experimental data as given in the supplement of paper PMC11908140.

B1: library; numbered along this chain (parent)
chain: MRKPRAAVGSGHRKQAASQEGRQKHAKNNSQAKPSACDGLARQPEEVVLQASVSSYHLFRDVAEVTAFRGSLLSWYDQEKRDLPWRRRAEDEMDLDRRAYAVWVSEVMLQQTQVATVINYYTGWMQKWPTLQDLASASLEEVNQLWAGLGYYSRGRRLQEGARKVVEELGGHMPRTAETLQQLLPGVGRYTAGAIASIAFGQATGVVDGNVARVLCRVRAIGADPSSTLVSQQLWGLAQQLVDPARPGDFNQAAMELGATVCTPQRPLCSQCPVESLCRARQRVEQEQLLASGSLSGSPDVEECAPNTGQCHLCLPPSEPWDQTLGVVNFPRKASRKPPREESSATCVLEQPGALGAQILLVQRPNSGLLAGLWEFPSVTWEPSEQLQRKALLQELQRWAGPLPATHLRHLGEVVHTFSHIKLTYQVYGLALEGQTPVTTVPPGARWLTQEEFHTAAVSTAMKKVFRVYQGQQPGTCMGSKRSQVSSPCSRKKPRMGQQVLDNFFRSHISTDAHSLNSAAQ

Variants of: B1
Experiment: 8OG:A repair function score (normalized; synonymous = 0, nonsense = -1) (normalized log-likelihood score); higher = more repair activity (WT-like)
Details: with 8OG:A DNA repair reporter (GFP) in HEK-293 MUTYH KO cells
How it was run: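 Per-tile Rosace fitness scores were converted to a normalized repair function score anchored on synonymous and nonsense distributions. That scale puts synonymous medians at 0 and nonsense medians at -1. Variants with starting counts under 300 counts per million were discarded. Input came from sorting viable mCherry+ MUTYH knockout HEK-293 cells, carrying lentiviral MUTYH cDNA NNN codon-scan libraries in 10 pg/ml doxycycline and an 8OG:A GFP repair reporter, into GFP+ and GFP− bins at 72 h, three replicates per tile, followed by tile amplicon sequencing.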
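Further: cells sorted at 72 h after reporter transfection.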

Compared with MRKPRAAVGSGHRKQAASQEGRQKHAKNNSQAKPSACDGLARQPEEVVLQASVSSYHLFRDVAEVTAFRGSLLSWYDQEKRDLPWRRRAEDEMDLDRRAYAVWVSEVMLQQTQVATVINYYTGWMQKWPTLQDLASASLEEVNQLWAGLGYYSRGRRLQEGARKVVEELGGHMPRTAETLQQLLPGVGRYTAGAIASIAFGQATGVVDGNVARVLCRVRAIGADPSSTLVSQQLWGLAQQLVDPARPGDFNQAAMELGATVCTPQRPLCSQCPVESLCRARQRVEQEQLLASGSLSGSPDVEECAPNTGQCHLWLPPSEPWDQTLGVVNFPRKASRKPPREESSATCVLEQPGALGAQILLVQRPNSGLLAGLWEFPSVTWEPSEQLQRKALLQELQRWAGPLPATHLRHLGEVVHTFSHIKLTYQVYGLALEGQTPVTTVPPGARWLTQEEFHTAAVSTAMKKVFRVYQGQQPGTCMGSKRSQVSSPCSRKKPRMGQQVLDNFFRSHISTDAHSLNSAAQ [C314W], MRKPRAAVGSGHRKQAASQEGRQKHAKNNSQAKPSACDGLARQPEEVVLQASVSSYHLFRDVAEVTAFRGSLLSWYDQEKRDLPWRRRAEDEMDLDRRAYAVWVSEVMLQQTQVATVINYYTGWMQKWPTLQDLASASLEEVNQLWAGLGYYSRGRRLQEGARKVVEELGGHMPRTAETLQQLLPGVGRYTAGAIASIAFGQATGVVDGNVARVLCRVRAIGADPSSTLVSQQLWGLAQQLVDPARPGDFNQAAMELGATVCTPQRPLCSQCPVESLCRARQRVEQEQLLASGSLSGSPDVEECAPNTGQCHLYLPPSEPWDQTLGVVNFPRKASRKPPREESSATCVLEQPGALGAQILLVQRPNSGLLAGLWEFPSVTWEPSEQLQRKALLQELQRWAGPLPATHLRHLGEVVHTFSHIKLTYQVYGLALEGQTPVTTVPPGARWLTQEEFHTAAVSTAMKKVFRVYQGQQPGTCMGSKRSQVSSPCSRKKPRMGQQVLDNFFRSHISTDAHSLNSAAQ [C314Y] is higher in “8OG:A repair function score” value: -0.679 for the first, -0.572 for the second.

Compared with MRKPRAAVGSGHRKQAASQEGRQKHAKNNSQAKPSACDGLARQPEEVVLQASVSSYHLFRDVAEVTAFRGSLLSWYDQEKRDLPWRRRAEDEMDLDRRAYAVWVSEVMLQQTQVATVINYYTGWMQKWPTLQDLASASLEEVNQLWAGLGYYSRGRRLQEGARKVVEELGGHMPRTAETLQQLLPGVGRYTAGAIASIAFGQATGVVDGNVARVLCRVRAIGADPSSTLVSQQLWGLAQQLVDPARPGDFNQAAMELGATVCTPQRPLCSQCPVESLCRARQRVEQEQLLASGSLSGSPDVEECAPNTGQCHLTLPPSEPWDQTLGVVNFPRKASRKPPREESSATCVLEQPGALGAQILLVQRPNSGLLAGLWEFPSVTWEPSEQLQRKALLQELQRWAGPLPATHLRHLGEVVHTFSHIKLTYQVYGLALEGQTPVTTVPPGARWLTQEEFHTAAVSTAMKKVFRVYQGQQPGTCMGSKRSQVSSPCSRKKPRMGQQVLDNFFRSHISTDAHSLNSAAQ [C314T], MRKPRAAVGSGHRKQAASQEGRQKHAKNNSQAKPSACDGLARQPEEVVLQASVSSYHLFRDVAEVTAFRGSLLSWYDQEKRDLPWRRRAEDEMDLDRRAYAVWVSEVMLQQTQVATVINYYTGWMQKWPTLQDLASASLEEVNQLWAGLGYYSRGRRLQEGARKVVEELGGHMPRTAETLQQLLPGVGRYTAGAIASIAFGQATGVVDGNVARVLCRVRAIGADPSSTLVSQQLWGLAQQLVDPARPGDFNQAAMELGATVCTPQRPLCSQCPVESLCRARQRVEQEQLLASGSLSGSPDVEECAPNTGQCHLSLPPSEPWDQTLGVVNFPRKASRKPPREESSATCVLEQPGALGAQILLVQRPNSGLLAGLWEFPSVTWEPSEQLQRKALLQELQRWAGPLPATHLRHLGEVVHTFSHIKLTYQVYGLALEGQTPVTTVPPGARWLTQEEFHTAAVSTAMKKVFRVYQGQQPGTCMGSKRSQVSSPCSRKKPRMGQQVLDNFFRSHISTDAHSLNSAAQ [C314S] is lower in “8OG:A repair function score” value: -0.575 for the first, -0.593 for the second.

First: MRKPRAAVGSGHRKQAASQEGRQKHAKNNSQAKPSACDGLARQPEEVVLQASVSSYHLFRDVAEVTAFRGSLLSWYDQEKRDLPWRRRAEDEMDLDRRAYAVWVSEVMLQQTQVATVINYYTGWMQKWPTLQDLASASLEEVNQLWAGLGYYSRGRRLQEGARKVVEELGGHMPRTAETLQQLLPGVGRYTAGAIASIAFGQATGVVDGNVARVLCRVRAIGADPSSTLVSQQLWGLAQQLVDPARPGDFNQAAMELGATVCTPQRPLCSQCPVESLCRARQRVEQEQLLASGSLSGSPDVEECAPNTGQCHLRLPPSEPWDQTLGVVNFPRKASRKPPREESSATCVLEQPGALGAQILLVQRPNSGLLAGLWEFPSVTWEPSEQLQRKALLQELQRWAGPLPATHLRHLGEVVHTFSHIKLTYQVYGLALEGQTPVTTVPPGARWLTQEEFHTAAVSTAMKKVFRVYQGQQPGTCMGSKRSQVSSPCSRKKPRMGQQVLDNFFRSHISTDAHSLNSAAQ [C314R]
Second: MRKPRAAVGSGHRKQAASQEGRQKHAKNNSQAKPSACDGLARQPEEVVLQASVSSYHLFRDVAEVTAFRGSLLSWYDQEKRDLPWRRRAEDEMDLDRRAYAVWVSEVMLQQTQVATVINYYTGWMQKWPTLQDLASASLEEVNQLWAGLGYYSRGRRLQEGARKVVEELGGHMPRTAETLQQLLPGVGRYTAGAIASIAFGQATGVVDGNVARVLCRVRAIGADPSSTLVSQQLWGLAQQLVDPARPGDFNQAAMELGATVCTPQRPLCSQCPVESLCRARQRVEQEQLLASGSLSGSPDVEECAPNTGQCHLVLPPSEPWDQTLGVVNFPRKASRKPPREESSATCVLEQPGALGAQILLVQRPNSGLLAGLWEFPSVTWEPSEQLQRKALLQELQRWAGPLPATHLRHLGEVVHTFSHIKLTYQVYGLALEGQTPVTTVPPGARWLTQEEFHTAAVSTAMKKVFRVYQGQQPGTCMGSKRSQVSSPCSRKKPRMGQQVLDNFFRSHISTDAHSLNSAAQ [C314V]
The “8OG:A repair function score” value of the first is higher: -0.482 for the first, -0.631 for the second.
